Laboratory results from PMC8556268.

Target: T1, Biotinylated Tir-10_v2 (Biotin-Ahx-EHI-pY-DEVAAD)
T1 chain: EHIYDEVAAD
Assay: SPR; Biacore T100, 25 °C, Series S SA chip, about 15 RUs of biotinylated peptide captured; 10 mM HEPES pH 7.4, 150 mM NaCl, 3 mM EDTA, 0.05% P20, 0.1 mg/mL BSA; analytes 60 nM free SH2, 10 nM tcTRP24_(8)SS-SH2_(2), 10 nM tcTRP24_(8)SS; 50 μL/minute

B1: tcTRP24_(8)SS-SH2_(2) (trimeric tcTRP24 particle with two Nck SH2 domains in each subunit, six in all), P16333 282-376; P16333 282-376 (protein)
chain: SELAARCLIILFQQLVELARLAIESGDEELLRRVSEWLEEVIKDMRRVVEQALREGNSELAARILIILFQQLVELARLAIESGDEELLRRVSEWLEEVIKDMRRVVEQALREGNWYYGKVTRHQAEMALNERGHEGDFLIRDSESSPNDFSVSLKAQGKNKHFKVQLKETVYCIGQRKFSTMEELVEHYKKAPIFTSEQGEKLYLVKHLSELAARILIILFQQLVELARLAIESGDEELLRRVSEWLEEVIKDMRRVVEQALREGNSELAARILIILFQQLVELARLAIESGDEELLRRVSEWLEEVIKDMRRVVEQALREGNSELAARILIILFQQLVELARLAIESGDEELLRRVSEWLEEVIKDMRRVVEQALREGNSELAARILIILFQQLVELARLAIESGDEELLRRVSEWLEEVIKDMRRVVEQALREGNWYYGKVTRHQAEMALNERGHEGDFLIRDSESSPNDFSVSLKAQGKNKHFKVQLKETVYCIGQRKFSTMEELVEHYKKAPIFTSEQGEKLYLVKHLSELAARILIILFQQLVELARLAIESGDEELLRRVSEWLEEVIKDMRRVVEQALREGNSELACRILIILFQQLVELARLAIESGDEELLRRVSEWLEEVIKDMRRVVEQALREGN
modifications: not checked
  maximum binding response: 123 RUs

B2: free SH2 domain derived from the Nck adapter protein, P16333 282-376 (domain or fragment)
chain: WYYGKVTRHQAEMALNERGHEGDFLIRDSESSPNDFSVSLKAQGKNKHFKVQLKETVYCIGQRKFSTMEELVEHYKKAPIFTSEQGEKLYLVKHL
modifications: not checked
  maximum binding response: 125 RUs
